In the supplement of paper PMC10567573:

B1: GNB5 (parent)
chain: YYPSGDAFASGSDDATCRLYDLRA
B2: CLINT1 (parent)
chain: VVTSAREHIYDLRSLENYHFVDEH

Variants of: B1
Experiment: protein stability index of a GFP-peptide fusion (GPS, HEK-293T) (PSI 1-6); higher = more stable
Details: c terminus: a fixed tail appended
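Further: lentivirally expressed fusions sorted by FACS into six bins by GFP to DsRed ratio, PSI derived from sequencing read proportions per bin multiplied by bin number.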

Row | Variant | protein stability index
1 | Y1I | 3.52
2 | Y1M | 3.67
3 | Y1R | 3.58
4 | Y1V | 3.72
5 | Y1H | 3.95
6 | Y1D | 4.09
7 | Y1F | 2.65
8 | Y1L | 3.84
9 | Y1Q | 3.81
10 | Y1P | 3.72
11 | Y1S | 3.99
12 | Y1A | 3.83
13 | Y1E | 3.81
14 | Y1N | 3.71
15 | Y1T | 3.6
16 | Y1G | 3.7
17 | Y1W | 2.86
18 | Y1C | 3.3
19 | Y1K | 3.55
20 | Y2W | 1.75
21 | Y2E | 4.83

Row | Variant | protein stability index
22 | Y2Q | 2.4
23 | Y2V | 2.02
24 | Y2T | 1.96
25 | Y2A | 1.79
26 | Y2L | 3.34
27 | Y2R | 3.66
28 | Y2I | 2.25
29 | Y2N | 3.55
30 | Y2P | 3.16
31 | Y2M | 2.48
32 | Y2C | 2.09
33 | Y2D | 4.29
34 | Y2S | 2.18
35 | Y2F | 2.03
36 | Y2G | 2.26
37 | Y2H | 2.69
38 | Y2K | 4.08
39 | P3D | 3.46
40 | P3E | 4.01
41 | P3A | 2.55
42 | P3C | 2.75

Variants of: B2
Experiment: as above
Details: c terminus: a fixed tail appended

Row | Variant | protein stability index
43 | E23Q | 2.55
44 | E23T | 2.2
45 | E23I | 2.54
46 | E23G | 3.21
47 | E23Y | 1.26
48 | E23S | 2.36
49 | E23M | 1.9
50 | E23F | 2.51
51 | E23H | 2.21
52 | E23C | 1.64
53 | E23V | 2.07
54 | E23W | 3.37
55 | E23L | 1.93
56 | E23R | 1.72
57 | E23A | 2.64
58 | E23P | 1.96
59 | E23D | 2.86
60 | E23K | 2.33
61 | E23N | 1.96
62 | Y18V | 3.24
63 | Y18L | 2.94
64 | Y18R | 3.72
65 | Y18Q | 3.87
66 | Y18S | 4.05
67 | Y18K | 3.6

Row | Variant | protein stability index
68 | Y18T | 3.94
69 | Y18M | 2.88
70 | Y18N | 4.48
71 | Y18P | 3.71
72 | Y18W | 2.94
73 | D22E | 2.42
74 | D22V | 2.3
75 | D22G | 2.85
76 | D22H | 2.93
77 | D22F | 2.2
78 | D22P | 2.58
79 | D22W | 3.21
80 | D22I | 1.09
81 | D22K | 2.49
82 | D22Q | 2.59
83 | D22M | 1.66
84 | D22R | 2.38
85 | D22N | 2.35
86 | D22L | 1.57
87 | D22C | 1.98
88 | D22Y | 1.5
89 | D22S | 2.31
90 | D22A | 2.1
91 | D22T | 1.75
92 | V21E | 3.79

Row | Variant | protein stability index
93 | V21K | 2.53
94 | V21F | 2.48
95 | V21I | 2.52
96 | V21S | 2.96
97 | V21H | 2.98
98 | V21R | 2.54
99 | V21G | 3.49
100 | V21W | 2.54
101 | V21Q | 3.25
102 | V21M | 2.54
103 | V21N | 3.44
104 | V21D | 3.74
105 | V21C | 2.78
106 | V21P | 3.38
107 | V21Y | 2.47
108 | V21A | 3.44
109 | V21L | 2.82
110 | V21T | 2.84
111 | H24L | 2.22
112 | H24R | 2.78
113 | H24C | 2.3
114 | H24S | 3.44
115 | H24G | 3.55
116 | H24K | 3.21
117 | H24P | 2.79

Row | Variant | protein stability index
118 | H24F | 2.58
119 | H24Y | 2.32
120 | H24N | 3.5
121 | H24T | 3.11
122 | H24I | 2.35
123 | H24V | 2.38
124 | H24D | 4.13
125 | H24W | 2.98
126 | H24M | 2.92
127 | H24E | 4.04
128 | H24Q | 3.39
129 | H24A | 2.85
130 | H19K | 4.3
131 | H19G | 3.16
132 | H19F | 2.26
133 | H19T | 3.28
134 | H19V | 2.11
135 | H19E | 3.8
136 | H19N | 3.09
137 | H19Q | 3.12
138 | H19I | 2.41
139 | H19W | 1.6
140 | H19C | 2.33
141 | H19D | 3.99
142 | H19M | 2.4

Row | Variant | protein stability index
143 | H19L | 2.68
144 | H19S | 3.21
145 | H19A | 2.03
146 | H19R | 3.52
147 | H19Y | 2.55
148 | H19P | 3
149 | F20S | 3.79
150 | F20H | 3.57
151 | F20G | 3.54
152 | F20K | 3.33
153 | F20T | 2.99
154 | F20C | 3.46
155 | F20E | 3.97
156 | F20N | 3.77
157 | F20M | 3.26
158 | F20L | 4.22
159 | F20V | 3.71
160 | F20Q | 3.73
161 | F20P | 3.96
162 | F20A | 4.11
163 | F20R | 3.24
164 | F20W | 2.58
165 | F20D | 4.77
166 | F20Y | 3.24
167 | F20I | 3.43
